± gives the standard deviation of the averaged measurements.
Assay: total protein half-life in vivo (active degradation + dilution); higher = more stable protein
[1] = E. coli NCM3722 delta-clpP delta-lon delta-hslV, growth: N-lim chemostat, doubling time 6 h
[2] = E. coli NCM3722 delta-clpP, growth: N-lim chemostat, doubling time 6 h
[3] = E. coli NCM3722 delta-hslV, growth: N-lim chemostat, doubling time 6 h
[4] = E. coli NCM3722 delta-lon, growth: N-lim chemostat, doubling time 6 h
[5] = E. coli NCM3722 delta-smpB, growth: N-lim chemostat, doubling time 6 h
[6] = wild type E. coli NCM3722, growth: C-lim chemostat, doubling time 3 h
[7] = wild type E. coli NCM3722, growth: C-lim chemostat, doubling time 6 h
[8] = wild type E. coli NCM3722, growth: C-lim chemostat, doubling time 12 h
[9] = wild type E. coli NCM3722, growth: N-lim chemostat, doubling time 6 h
[10] = wild type E. coli NCM3722, growth: N-lim chemostat, doubling time 12 h
[11] = wild type E. coli NCM3722, growth: P-lim chemostat, doubling time 6 h
[12] = wild type E. coli NCM3722, growth: P-lim chemostat, doubling time 12 h

MKSGRFIGVMSGTSLDGVDVVLATIDEHRVAQLASLSWPIPVSLKQAVLDICQGQQLTLSQFGQLDTQLGQLFADAVNALLKEQNLQARDIVAIGCHGQTVWHEPTGVAPHTLQIGDNNQIVARTGITVVGDFRRRDIALGGQGAPLVPAFHHALLAHPTERRMVLNIGGIANLSLLIPGQPVGGYDTGPGNMLMDAWIWRQAGKPYDKDAEWARAGKVILPLLQNMLSDPYFSQPAPKSTGREYFNYGWLERHLRHFPGVDPRDVQATLAELTAVTISEQVLLSGGCERLMVCGGGSRNPLLMARLAALLPGTEVTTTDAVGISGDDMEALAFAWLAWRTLAGLPGNLPSVTGASQETVLGAIFPANP
total protein half-life in vivo [1]: 4.58 ± 0.37 h | total protein half-life in vivo [2]: 4.32 ± 0.2 h | total protein half-life in vivo [3]: 3.98 ± 0.065 h | total protein half-life in vivo [4]: 5.78 ± 1.9 h | total protein half-life in vivo [5]: 3.88 ± 0.11 h | total protein half-life in vivo [6]: 3.34 ± 0.54 h | total protein half-life in vivo [7]: 5.7 ± 0.078 h | total protein half-life in vivo [8]: 9.74 ± 0.51 h | total protein half-life in vivo [9]: 4.03 ± 0.26 h | total protein half-life in vivo [10]: 7.18 ± 0.17 h | total protein half-life in vivo [11]: 5.87 ± 0.47 h | total protein half-life in vivo [12]: 12.9 ± 0.95 h

MSAIAPGMILIAYLCGSISSAILVCRLCGLPDPRTSGSGNPGATNVLRIGGKGAAVAVLIFDVLKGMLPVWGAYELGVSPFWLGLIAIAACLGHIWPVFFGFKGGKGVATAFGAIAPIGWDLTGVMAGTWLLTVLLSGYSSLGAIVSALIAPFYVWWFKPQFTFPVSMLSCLILLRHHDNIQRLWRRQETKIWTKFKRKREKDPE
total protein half-life in vivo [1]: 6.82 h | total protein half-life in vivo [2]: 6.64 h | total protein half-life in vivo [3]: > 8 h | total protein half-life in vivo [4]: 7.06 h | total protein half-life in vivo [5]: 5.72 h | total protein half-life in vivo [7]: 6.29 h | total protein half-life in vivo [9]: 6.93 ± 0.78 h | total protein half-life in vivo [10]: 9.94 h | total protein half-life in vivo [11]: 6.01 ± 0.4 h | total protein half-life in vivo [12]: 11 h

MKGLNKITCCLLAALLMPCAGHAENEQYGANFNNADIRQFVEIVGQHLGKTILIDPSVQGTISVRSNDTFSQQEYYQFFLSILDLYGYSVITLDNGFLKVVRSANVKTSPGMIADSSRPGVGDELVTRIVPLENVPARDLAPLLRQMMDAGSVGNVVHYEPSNVLILTGRASTINKLIEVIKRVDVIGTEKQQIIHLEYASAEDLAEILNQLISESHGKSQMPALLSAKIVADKRTNSLIISGPEKARQRITSLLKSLDVEESEEGNTRVYYLKYAKATNLVEVLTGVSEKLKDEKGNARKPSSSGAMDNVAITADEQTNSLVITADQSVQEKLATVIARLDIRRAQVLVEAIIVEVQDGNGLNLGVQWANKNVGAQQFTNTGLPIFNAAQGVADYKKNGGITSANPAWDMFSAYNGMAAGFFNGDWGVLLTALASNNKNDILATPSIVTLDNKLASFNVGQDVPVLSGSQTTSGDNVFNTVERKTVGTKLKVTPQVNEGDAVLLEIEQEVSSVDSSSNSTLGPTFNTRTIQNAVLVKTGETVVLGGLLDDFSKEQVSKVPLLGDIPLVGQLFRYTSTERAKRNLMVFIRPTIIRDDDVYRSLSKEKYTRYRQEQQQRIDGKSKALVGSEDLPVLDENTFNSHAPAPSSR
total protein half-life in vivo [1]: 2.53 h | total protein half-life in vivo [5]: 1.92 ± 0.044 h | total protein half-life in vivo [6]: 2.2 h

MNAKIIASLAFTSMFSLSTLLSPAHAEEQEKALNFGIISTESQQNLKPQWTPFLQDMEKKLGVKVNAFFAPDYAGIIQGMRFNKVDIAWYGNLSAMEAVDRANGQVFAQTVAADGSPGYWSVLIVNKDSPINNLNDLLAKRKDLTFGNGDPNSTSGFLVPGYYVFAKNNISASDFKRTVNAGHETNALAVANKQVDVATNNTENLDKLKTSAPEKLKELKVIWKSPLIPGDPIVWRKNLSETTKDKIYDFFMNYGKTPEEKAVLERLGWAPFRASSDLQLVPIRQLALFKEMQGVKSNKGLNEQDKLAKTTEIQAQLDDLDRLNNALSAMSSVSKAVQ
total protein half-life in vivo [11]: 1.02 ± 0.21 h | total protein half-life in vivo [12]: 2.63 ± 1.1 h

MSLNMFWFLPTHGDGHYLGTEEGSRPVDHGYLQQIAQAADRLGYTGVLIPTGRSCEDAWLVAASMIPVTQRLKFLVALRPSVTSPTVAARQAATLDRLSNGRALFNLVTGSDPQELAGDGVFLDHSERYEASAEFTQVWRRLLQRETVDFNGKHIHVRGAKLLFPAIQQPYPPLYFGGSSDVAQELAAEQVDLYLTWGEPPELVKEKIEQVRAKAAAHGRKIRFGIRLHVIVRETNDEAWQAAERLISHLDDETIAKAQAAFARTDSVGQQRMAALHNGKRDNLEISPNLWAGVGLVRGGAGTALVGDGPTVAARINEYAALGIDSFVLSGYPHLEEAYRVGELLFPLLDVAIPEIPQPQPLNPQGEAVANDFIPRKVAQS
total protein half-life in vivo [1]: 5.43 ± 0.79 h

MKKRHLLSLLALGISTACYGETYPAPIGPSQSDFGGVGLLQTPTARMAREGELSLNYRDNDQYRYYSASVQLFPWLETTLRYTDVRTRQYSSVEAFSGDQTYKDKAFDLKLRLWEESYWLPQVAVGARDIGGTGLFDAEYLVASKAWGPFDFTLGLGWGYLGTSGNVKNPLCSASDKYCYRDNSYKQAGSIDGSQMFHGPASLFGGVEYQTPWQPLRLKLEYEGNNYQQDFAGKLEQKSKFNVGAIYRVTDWADVNLSYERGNTFMFGVTLRTNFNDLRPSYNDNARPQYQPQPQDAILQHSVVANQLTLLKYNAGLADPQIQAKGDTLYVTGEQVKYRDSREGIIRANRIVMNDLPDGIKTIRITENRLNMPQVTTETDVASLKNHLAGEPLGHETTLAQKRVEPVVPQSTEQGWYIDKSRFDFHIDPVLNQSVGGPENFYMYQLGVMGTADLWLTDHLLTTGSLFANLANNYDKFNYTNPPQDSHLPRVRTHVREYVQNDVYVNNLQANYFQHLGNGFYGQVYGGYLETMFGGAGAEVLYRPLDSNWAFGLDANYVKQRDWRSAKDMMKFTDYSVKTGHLTAYWTPSFAQDVLVKASVGQYLAGDKGGTLEIAKRFDSGVVVGGYATITNVSKEEYGEGDFTKGVYVSVPLDLFSSGPTRSRAAIGWTPLTRDGGQQLGRKFQLYDMTSDRSVNFR
total protein half-life in vivo [1]: 5.44 h | total protein half-life in vivo [4]: 6.75 ± 0.42 h | total protein half-life in vivo [5]: 5.88 ± 0.37 h | total protein half-life in vivo [8]: 12.6 h | total protein half-life in vivo [10]: 11.6 h

MKRINALTIAGTDPSGGAGIQADLKTFSALGAYGCSVITALVAQNTRGVQSVYRIEPDFVAAQLDSVFSDVRIDTTKIGMLAETDIVEAVAERLQRYQIQNVVLDTVMLAKSGDPLLSPSAVATLRSRLLPQVSLITPNLPEAAALLDAPHARTEQEMLEQGRSLLAMGCGAVLMKGGHLDDEQSPDWLFTREGEQRFTAPRIMTKNTHGTGCTLSAALAALRPRHTNWADTVQEAKSWLSSALAQADTLEVGHGIGPVHHFHAWW
total protein half-life in vivo [1]: 5.24 ± 0.81 h | total protein half-life in vivo [2]: 5.47 ± 0.26 h | total protein half-life in vivo [3]: 4.31 ± 0.15 h | total protein half-life in vivo [4]: 4.49 ± 0.18 h | total protein half-life in vivo [5]: 4.23 ± 0.093 h | total protein half-life in vivo [6]: 3.06 ± 0.055 h | total protein half-life in vivo [7]: 5.96 ± 0.11 h | total protein half-life in vivo [8]: 9.68 ± 4.2 h | total protein half-life in vivo [9]: 4.49 ± 0.61 h | total protein half-life in vivo [10]: 7.38 ± 0.17 h | total protein half-life in vivo [11]: 5.89 ± 0.12 h | total protein half-life in vivo [12]: 9.53 ± 1.9 h

MIETLLEVRNLSKTFRYRTGWFRRQTVEAVKPLSFTLREGQTLAIIGENGSGKSTLAKMLAGMIEPTSGELLIDDHPLHFGDYSFRSQRIRMIFQDPSTSLNPRQRISQILDFPLRLNTDLEPEQRRKQIIETMRMVGLLPDHVSYYPHMLAPGQKQRLGLARALILRPKVIIADEALASLDMSMRSQLINLMLELQEKQGISYIYVTQHIGMMKHISDQVLVMHQGEVVERGSTADVLASPLHELTKRLIAGHFGEALTADAWRKDR [P0AAH8]
total protein half-life in vivo [1]: 5.82 ± 0.14 h | total protein half-life in vivo [2]: 5.86 ± 0.16 h | total protein half-life in vivo [3]: 5.99 ± 0.16 h | total protein half-life in vivo [4]: 5.26 ± 1.3 h | total protein half-life in vivo [5]: 5.78 ± 0.3 h | total protein half-life in vivo [6]: 2.97 ± 0.16 h | total protein half-life in vivo [7]: 5.78 ± 0.22 h | total protein half-life in vivo [8]: 11.5 ± 2.9 h | total protein half-life in vivo [9]: 5.53 ± 0.077 h | total protein half-life in vivo [10]: 12.1 ± 1.1 h | total protein half-life in vivo [11]: 6.03 ± 0.55 h | total protein half-life in vivo [12]: 12.51 ± 0.086 h

MIKVLFFAQVRELVGTDATEVAADFPTVEALRQHMAAQSDRWALALEDGKLLAAVNQTLVSFDHPLTDGDEVAFFPPVTGG
total protein half-life in vivo [2]: 4.52 ± 0.36 h | total protein half-life in vivo [3]: 4.61 ± 0.15 h | total protein half-life in vivo [4]: 5.83 ± 0.47 h | total protein half-life in vivo [5]: 4.6 ± 0.21 h | total protein half-life in vivo [6]: 2.96 ± 0.2 h | total protein half-life in vivo [7]: 4.76 ± 0.41 h | total protein half-life in vivo [8]: 9.64 ± 0.42 h | total protein half-life in vivo [9]: 4.25 ± 0.17 h | total protein half-life in vivo [10]: 7.72 ± 0.16 h | total protein half-life in vivo [11]: 5.12 ± 0.3 h | total protein half-life in vivo [12]: 11.7 ± 0.55 h

MNTFSVSRLALALAFGVTLTACSSTPPDQRPSDQTAPGTSSRPILSAKEAQNFDAQHYFASLTPGAAAWNPSPITLPAQPDFVVGPAGTQGVTHTTIQAAVDAAIIKRTNKRQYIAVMPGEYQGTVYVPAAPGGITLYGTGEKPIDVKIGLSLDGGMSPADWRHDVNPRGKYMPGKPAWYMYDSCQSKRSDSIGVLCSAVFWSQNNGLQLQNLTIENTLGDSVDAGNHPAVALRTDGDQVQINNVNILGRQNTFFVTNSGVQNRLETNRQPRTLVTNSYIEGDVDIVSGRGAVVFDNTEFRVVNSRTQQEAYVFAPATLSNIYYGFLAVNSRFNAFGDGVAQLGRSLDVDANTNGQVVIRDSAINEGFNTAKPWADAVISNRPFAGNTGSVDDNDEIQRNLNDTNYNRMWEYNNRGVGSKVVAEAKK
total protein half-life in vivo [1]: 5.8 ± 0.063 h | total protein half-life in vivo [2]: 7.06 ± 1.3 h | total protein half-life in vivo [3]: 6.54 ± 0.33 h | total protein half-life in vivo [4]: 6.89 ± 0.2 h | total protein half-life in vivo [5]: 5.993 ± 0.019 h | total protein half-life in vivo [6]: 3.15 ± 0.05 h | total protein half-life in vivo [7]: 6.27 ± 0.39 h | total protein half-life in vivo [8]: 11.6 ± 0.95 h | total protein half-life in vivo [9]: 6.28 ± 0.13 h | total protein half-life in vivo [10]: 14.1 ± 0.59 h | total protein half-life in vivo [11]: 6.3 ± 0.14 h | total protein half-life in vivo [12]: 13.7 ± 0.19 h

MLRIIDTETCGLQGGIVEIASVDVIDGKIVNPMSHLVRPDRPISPQAMAIHRITEAMVADKPWIEDVIPHYYGSEWYVAHNASFDRRVLPEMPGEWICTMKLARRLWPGIKYSNMALYKTRKLNVQTPPGLHHHRALYDCYITAALLIDIMNTSGWTAEQMADITGRPSLMTTFTFGKYRGKAVSDVAERDPGYLRWLFNNLDSMSPELRLTLKHYLENT [P0AEK0]
total protein half-life in vivo [1]: 5.44 ± 2 h | total protein half-life in vivo [2]: 1.56 ± 0.12 h | total protein half-life in vivo [3]: 1.2033 ± 0.0011 h | total protein half-life in vivo [4]: 2.29 ± 0.6 h | total protein half-life in vivo [5]: 0.987 ± 0.0014 h | total protein half-life in vivo [6]: 1.24 ± 0.16 h | total protein half-life in vivo [7]: 2 ± 0.16 h | total protein half-life in vivo [8]: 2.32 h | total protein half-life in vivo [9]: 1.37 ± 0.12 h | total protein half-life in vivo [10]: 2.04 ± 0.23 h | total protein half-life in vivo [11]: 1.52 ± 0.42 h | total protein half-life in vivo [12]: 3.43 h

Source: the supplement of paper PMC11246515
